Data on six substances can be found in US5773694.

Test [1] deals with Ace-AMP1 (Allium cepa - Antimicrobial Protein 1), mature protein purified from Allium cepa seeds (Allium cepa).
Test [2] has as its target reduced and S-carboxyamidomethylated Ace-AMP1 (Allium cepa).

Some results are limits rather than exact numbers.

As for Chymotrypsin (enzyme), in test [1], the Relative antifungal activity (% of control activity) after protease digestion (% of control activity) is 80.
Substance Pronase E (enzyme) returned a Relative antifungal activity (% of control activity) after protease digestion (% of control activity) in test [1] of 5.
Substance Proteinase K (enzyme) yielded a Relative antifungal activity (% of control activity) after protease digestion (% of control activity) in test [1] of 60.
Still for that read-out and setting: the figure for Trypsin (enzyme) is 90.
As for “endoproteinase Arg-C (sequencing grade, Boehringer) (enzyme)”, the peptides separated by RP-HPLC after digestion (separable peptides) in test [2] was over 10.
Turning to “endoproteinase Asp-N (sequencing grade, Boehringer) (enzyme)”, the protein fragments separated by RP-HPLC after digestion (protein fragments) in test [2] was 3.
